One molecule from patent US20240226314A1 (Sanofi, published 2024) can be followed below.

For experiment [1], the target named is T1, His-tagged cynomolgus monkey TfR ectodomain (cyTFRC_89_760; mature protein) (cynomolgus monkey (Macaca fascicularis), UniProt Q5RDH6 89-760 (Pongo abelii entry)).
T1 construct: also called cTfR; cTfR ectodomain
T1 chain: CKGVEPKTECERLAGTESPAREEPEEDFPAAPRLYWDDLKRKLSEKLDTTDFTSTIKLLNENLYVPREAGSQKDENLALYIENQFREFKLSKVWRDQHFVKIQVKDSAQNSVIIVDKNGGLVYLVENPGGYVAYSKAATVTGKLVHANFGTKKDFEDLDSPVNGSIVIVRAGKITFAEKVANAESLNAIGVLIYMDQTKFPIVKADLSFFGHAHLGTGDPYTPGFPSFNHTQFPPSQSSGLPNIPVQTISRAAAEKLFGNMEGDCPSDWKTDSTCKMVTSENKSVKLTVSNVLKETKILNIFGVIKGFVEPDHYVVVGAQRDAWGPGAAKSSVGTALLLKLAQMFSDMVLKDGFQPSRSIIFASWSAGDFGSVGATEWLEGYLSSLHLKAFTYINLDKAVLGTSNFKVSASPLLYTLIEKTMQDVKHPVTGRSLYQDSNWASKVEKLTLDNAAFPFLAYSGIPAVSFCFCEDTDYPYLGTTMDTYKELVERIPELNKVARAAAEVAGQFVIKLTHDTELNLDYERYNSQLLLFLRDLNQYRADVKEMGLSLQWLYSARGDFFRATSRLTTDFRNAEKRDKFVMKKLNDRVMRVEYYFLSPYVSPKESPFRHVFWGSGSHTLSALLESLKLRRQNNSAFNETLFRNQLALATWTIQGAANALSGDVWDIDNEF
Nature of the experiment: SPR; KD on cTfR against KD on hTfR. As to the method:
(§1) Experiments were run on Bruker MASS-2 instrument with HBS-EP+ as running buffer and sample diluent (Cytiva Life Sciences, #BR100826). HCA sensorchips (Bruker, #1862614) were immobilized with anti his antibody (His capture kit, Cytiva Life Sciences, #28995056) following provider's instructions. About 10 000 RU of anti his was obtained. […] Surface was regenerated with one 1 min pulse of 10 mM Glycine-HCl pH1.5.
(In general: Surface plasmon resonance follows binding to a sensor surface in real time, without labels.)

The target of experiment [2] is T1, His-tagged cynomolgus monkey TfR …. Description: SPR; KD on cTfR against KD on hTfR. As to the method: (§2) Binding of the humanized Fab variants to human, cynomolgus and mouse TfR was assessed using SPR at pH 7.4. Experiments were run on a Bruker MASS-2 instrument with HBS-EP+ as running buffer and sample diluent (Cytiva Life Sciences, #BR100826). HCA sensor chips (Bruker, #1862614) were immobilized with anti-His antibody (His capture kit, Cytiva Life Sciences, #28995056) following manufacturer's instructions. About 10,000 RU of anti-His was obtained. His-tagged hTfR ectodomain (SEQ ID NO: 39), cTfR ectodomain (SEQ ID NO: 40) or mouse TfR ectodomain (SEQ ID NO: 41) (5 μg/ml) was captured for 1 min at 10 μL/min. Concentration series of the humanized Fab variants were then injected for 4 min at 30 μL/min over hTfR surfaces and dissociation was monitored for 5 min. Surface was regenerated with one 1 min pulse of 10 mM glycine-HCl at pH 1.5.

The target of experiment [3] is His-tagged mouse TfR ectodomain (mTFRC_89_764; mature protein) (mouse, UniProt Q62351 89-763). Description: SPR, His-tagged mTfR ectodomain captured on anti-His. On the procedure: as §1
His-tagged mouse TfR ectodomain (mTFRC_89_764; mature protein), sequence (Q62351 other isoform, or with tags, fused parts or gaps): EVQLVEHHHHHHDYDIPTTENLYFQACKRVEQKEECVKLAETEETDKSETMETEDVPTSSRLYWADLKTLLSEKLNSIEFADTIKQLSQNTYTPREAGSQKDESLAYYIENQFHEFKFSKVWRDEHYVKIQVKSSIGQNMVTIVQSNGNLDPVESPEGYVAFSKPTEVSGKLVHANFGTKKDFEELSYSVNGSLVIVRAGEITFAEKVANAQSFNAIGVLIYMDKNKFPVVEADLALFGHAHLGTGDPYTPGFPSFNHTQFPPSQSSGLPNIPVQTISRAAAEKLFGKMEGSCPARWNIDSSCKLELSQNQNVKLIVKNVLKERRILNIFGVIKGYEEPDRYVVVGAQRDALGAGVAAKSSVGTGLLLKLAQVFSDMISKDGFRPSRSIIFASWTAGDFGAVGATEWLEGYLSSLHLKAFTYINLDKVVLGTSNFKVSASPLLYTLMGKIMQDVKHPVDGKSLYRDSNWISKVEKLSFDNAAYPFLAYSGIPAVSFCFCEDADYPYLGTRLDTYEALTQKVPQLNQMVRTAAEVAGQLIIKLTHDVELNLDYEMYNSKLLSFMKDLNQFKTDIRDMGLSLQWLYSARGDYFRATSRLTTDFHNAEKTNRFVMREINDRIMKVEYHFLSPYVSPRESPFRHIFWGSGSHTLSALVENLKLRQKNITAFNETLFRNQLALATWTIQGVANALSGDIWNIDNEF
Experiment [4] concerns the target T2, His-tagged human TfR ectodomain (hTFRC_89-760_G142S; mature protein) (human, UniProt P02786 89-760).
T2 construct: It carries the G142S haplotype; also called hTfR ectodomain
Description: SPR, His-tagged TfR ectodomain captured on anti-His, 1:1 fit. As to the method: as §1

For experiment [5], the target named is T1, His-tagged cynomolgus monkey TfR …. The description is as above. On the procedure:
as §1

Experiment [6] has as its target T2, His-tagged human TfR ectodomain …. The description is as above. On the procedure: as §2
This is another data set of the same source.

Experiment [7] concerns the target T1, His-tagged cynomolgus monkey TfR …. The experiment is described as above. On the procedure:
as §2

Like-named read-outs stand apart in the source and are kept apart here.

B1: 531-1L2_mouse mAb (antibody, IgG1, V domains shown)
VH: QVQLQQPGAELVSPGASVKLSCKASDYTFTRYWLNWVKQRPGQGLEWIGMIDPSVSECHYSQMFKDKATLTVDKSSSTAYMLLNSLTSEDSAVYYCSQIRLPYYYAMDSWGQGTSVTVSS
VL: DIQMTQTPSSLSASLGDRVTISCRASQDINSFLNWYQQKPDGTVKLLIYYTSRLHSGVPSRFSGSGSGTDYSLTIGNLDQEDIATYFCQQGNTLPRTFGGGTKLELK
notes: constant regions are not
For the molecule B1, the “Cynomolgus/human KD ratio” value in experiment [1] and in experiment [2] was 3.9 in each case. Also, in experiment [3], the binding result is listed as “no binding”. Besides, the Kd (in general, the free concentration of one partner at which half of the binding sites on the other are occupied at equilibrium, for simple one-to-one binding) in experiment [4] worked out at 6.9 nM; in experiment [5], 27 nM; in experiment [6], 6.93 nM; in experiment [7], 27 nM.
